According to the supplement of paper PMC10126150:
± gives the standard deviation of the averaged measurements.

The sequences below were run on ATP (assay: switch fluorescence ratio, 500 uM ATP over buffer (Cy3 cluster intensity, sum of 5 cycles each) (fold (ratio)); higher = stronger signal-on switching upon ATP binding; sequences stand for … in TCGTCGGCAGCGTCAGATGTGTATAAGAGACAGTTTTTTTTTTTTTTTTTTTTTTTTT…TC). Details: aptamer strand: ATP DNA aptamer (quencher-CACCTGGGGGAGTATTGCGGAGGAAGG + anchor), 100 nM annealed; ATP concentration: 500 uM.
How it was run: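 Cy3-labelled switching-strand clusters on a modified Illumina MiSeq flow-cell were annealed to 100 nM quencher-labelled ATP aptamer and imaged first in selection buffer, then after 15 min with 500 uM ATP at 22 °C. NaOH stripping and re-annealing separated each of five buffer/ATP cycles, and clusters outside 100-1000 RFU were excluded. The fluorescence ratio sums target-cycle Cy3 intensity over buffer-cycle Cy3 intensity per cluster and averages it per switch-domain sequence.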
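Further: ATP exposure 15 min at 22 °C before imaging.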

Going from CGGGGTACTT to ATGCTAATTT, the switch fluorescence ratio falls from 1.06 ± 0.056 to 0.9666 ± 0.0015.

Going from CTATTGGGAG to TCATTGTTCG, the switch fluorescence ratio falls from 1.03 ± 0.032 to 0.958 ± 0.0035.

GAATCGTCG and TTTGGGGTGG are within error of each other in switch fluorescence ratio: 0.983 ± 0.025 for the first, 0.974 ± 0.031 for the second.

TATTTTGTGC and AAGTTTTTGC are within error of each other in switch fluorescence ratio: 1.02 ± 0.012 for the first, 1.01 ± 0.019 for the second.

ATATCTATAG and TGGGGAATGG are within error of each other in switch fluorescence ratio: 0.958 ± 0.018 for the first, 1 ± 0.05 for the second.

TTGTGGTCGT and CAGGTAGATC are within error of each other in switch fluorescence ratio: 0.9859 ± 0.0074 for the first, 1.04 ± 0.05 for the second.

Compared with AGCAATAGTT, AAGGTTGGG is lower in switch fluorescence ratio: 2.97 ± 0.051 for the first, 0.989 ± 0.014 for the second.

GACAGTGGTT and ACATGAGATT are within error of each other in switch fluorescence ratio: 1.05 ± 0.059 for the first, 1.04 ± 0.015 for the second.

First: TGCCAGTTGT
Second: TTAAGATTGG
The switch fluorescence ratio of the first is higher: 1.006 ± 0.0076 for the first, 0.959 ± 0.015 for the second.

First: CCACATTGCT
Second: AAAAAGGGT
The switch fluorescence ratio of the first is higher: 1.21 ± 0.017 for the first, 0.987 ± 0.032 for the second.

TTCGTACTTT and CGAAGAGGAG are within error of each other in switch fluorescence ratio: 1 ± 0.043 for the first, 0.981 ± 0.011 for the second.

TTTTATGAGC and TATGTGGAGT are within error of each other in switch fluorescence ratio: 1.03 ± 0.045 for the first, 0.9924 ± 0.0089 for the second.

TGGGTACAGC and ACAGGTAAGG are within error of each other in switch fluorescence ratio: 1.02 ± 0.04 for the first, 1.055 ± 0.0073 for the second.

ACAGGCACGC and ATTACCAATT are within error of each other in switch fluorescence ratio: 1.069 ± 0.0017 for the first, 2.24 ± 1.8 for the second.

AGTGCAGGTT and TTGGCAGATG are within error of each other in switch fluorescence ratio: 0.97386 ± 7.1e-05 for the first, 1 ± 0.043 for the second.

Compared with TGAGTAGGGT, GAGAGGGGGC is lower in switch fluorescence ratio: 0.992 ± 0.011 for the first, 0.931 ± 0.018 for the second.

AGGACAGTCG and GATGGGGGCG are within error of each other in switch fluorescence ratio: 0.929 ± 0.045 for the first, 1.03 ± 0.093 for the second.

CGGGGGTGGT and TAAATCCTGG are within error of each other in switch fluorescence ratio: 1.01 ± 0.033 for the first, 0.961 ± 0.023 for the second.

ATAGGGGAAG and ACGGCTCAGA are the same in switch fluorescence ratio: 1.01 ± 0.033 for the first, 1.013 ± 0.0079 for the second.

TGGTGTGATG and GTTTTCGTCG are the same in switch fluorescence ratio: 1.007 ± 0.0026 for the first, 1.01 ± 0.054 for the second.

AGAGTGAGAG and AAATTAGGGG are within error of each other in switch fluorescence ratio: 0.9931 ± 0.0056 for the first, 0.9908 ± 0.0085 for the second.

First: TGGGGGTTAC
Second: ACCCTCCGGC
The switch fluorescence ratio of the first is lower: 1.08 ± 0.13 for the first, 2.45 ± 0.026 for the second.

Going from GATGAGAATT to TCTCACGATT, the switch fluorescence ratio rises from 0.98912 ± 0.00024 to 1.022 ± 0.0061.

CAGTGCGGAG and CGTGACCGGA are within error of each other in switch fluorescence ratio: 0.999 ± 0.016 for the first, 0.972 ± 0.014 for the second.

ATGGGCGGCG and TTAATCCATG are within error of each other in switch fluorescence ratio: 0.993 ± 0.021 for the first, 0.988 ± 0.011 for the second.

AGCGTGACTG and ACATCTCAGT are within error of each other in switch fluorescence ratio: 0.987 ± 0.019 for the first, 1.06 ± 0.059 for the second.

TAAAAAGAAG and AAGCTCTGAG are within error of each other in switch fluorescence ratio: 1 ± 0.045 for the first, 1.03 ± 0.017 for the second.

AATGTCTTTG and TGAATGAGGG are within error of each other in switch fluorescence ratio: 0.984 ± 0.013 for the first, 0.993 ± 0.029 for the second.

TGCAAAATAA and CGGATGGGGT are within error of each other in switch fluorescence ratio: 1.17 ± 0.24 for the first, 0.973 ± 0.038 for the second.

AAGTTTATGC and AACGGTCAAA are within error of each other in switch fluorescence ratio: 0.977 ± 0.025 for the first, 1.02 ± 0.028 for the second.

GTGTTTTTGG and AATGAATGGG are within error of each other in switch fluorescence ratio: 0.983 ± 0.022 for the first, 0.981 ± 0.018 for the second.

CGCTAGGGAA and ATTTTGTGGT are within error of each other in switch fluorescence ratio: 1.03 ± 0.045 for the first, 1.01 ± 0.011 for the second.

TTAAAAGGGG and GGGGATTTGC are within error of each other in switch fluorescence ratio: 1.01 ± 0.044 for the first, 0.969 ± 0.023 for the second.

TCATTGTGGT and GATATCCAGC are within error of each other in switch fluorescence ratio: 0.988 ± 0.018 for the first, 1.02 ± 0.023 for the second.

AATGGTTAAG and GGGGTGCAGT are within error of each other in switch fluorescence ratio: 1 ± 0.054 for the first, 0.992 ± 0.022 for the second.

TCAATAGCCG and AAGGGGATAA are within error of each other in switch fluorescence ratio: 1.12 ± 0.14 for the first, 0.99 ± 0.045 for the second.

ACCAATGGGG and TGTAAAAAGG are within error of each other in switch fluorescence ratio: 1.02 ± 0.036 for the first, 0.98 ± 0.025 for the second.

ATTCTACTGA and TGGGGACGTT are within error of each other in switch fluorescence ratio: 1.06 ± 0.062 for the first, 0.971 ± 0.056 for the second.

AAGTTTAATT and TTTCATACGG are within error of each other in switch fluorescence ratio: 1.02 ± 0.012 for the first, 1.008 ± 0.0034 for the second.

GTGTTTGTGT and AAGGGCGGGG are within error of each other in switch fluorescence ratio: 0.983 ± 0.028 for the first, 1.01 ± 0.019 for the second.

Compared with TCGGGTAAGA, TAACATTTAT is lower in switch fluorescence ratio: 1.04 ± 0.026 for the first, 0.979 ± 0.027 for the second.

TTTGATATGG and TTTTCTCTAG are within error of each other in switch fluorescence ratio: 0.999 ± 0.038 for the first, 1.01 ± 0.055 for the second.

Going from GGGGTTAATG to AAATGCACAC, the switch fluorescence ratio rises from 0.998 ± 0.028 to 1.107 ± 0.0021.

TAGAGGACGA and ATGAAAGTAT are within error of each other in switch fluorescence ratio: 1.04 ± 0.063 for the first, 1.011 ± 0.0061 for the second.

TCAAATGAAT and TTTTTTGCTT are within error of each other in switch fluorescence ratio: 0.994 ± 0.05 for the first, 0.989 ± 0.038 for the second.

GGTTGGGTGG and GATTTGGTAG are within error of each other in switch fluorescence ratio: 0.986 ± 0.03 for the first, 1 ± 0.023 for the second.

Going from TGGGATCGTT to TTTGTATACA, the switch fluorescence ratio rises from 0.98 ± 0.015 to 1.01 ± 0.015.

AACAGATTTT and GACGAGCCAG are within error of each other in switch fluorescence ratio: 0.998 ± 0.011 for the first, 1.002 ± 0.0066 for the second.

TTTTCGTAGC and GGCATATGCG are within error of each other in switch fluorescence ratio: 1.09 ± 0.14 for the first, 1.013 ± 0.0068 for the second.

Going from GGTAATGCGG to TAAATACTCA, the switch fluorescence ratio rises from 1.01 ± 0.041 to 1.16 ± 0.083.
